Source: patent publication US11708423B2, “Chimeric engulfment receptor molecules and methods of use” (CERO THERAPEUTICS, INC., priority 2017, dated 2023)

What was measured:
ALK+A549 cells = experiment: Phagocytosis of ALK inhibitor treated A549 ALK+ cells by CER T cells (fluorescent microscopy); format: cell-based; settings: 12 hours; for phagocytosis of A549 cells: CD4 T cells; for phagocytic elimination of ALK+A549 cells: 2.5 μM Alectinib
Source text: An ELM4-ALK translocation was introduced into A549 cells. […] CD4 T cells are modified to express CER104 or CER117 and labeled with CELLTRACE Violet. CER117 has a polypeptide sequence set forth in SEQ ID NO:144 and comprises a Tim4 binding domain, a Tim4 transmembrane domain, and an engulfment signaling domain comprising a primary engulfment signaling domain comprising a TLR8 signaling domain and a secondary engulfment signaling domain comprising a TRAF6 signaling domain. The ALK+A549 cells were then co-cultured with CER104- or CER117-expressing CD4+ T cells or Mock-transduced (vector only) T cells for 12 hours and images were obtained by fluorescent microscopy at 40× magnification (FIGS. 62A-E). White arrows indicate exemplary phagocytic events (pH rodo red cell targets within CELLTRACE Violet labeled CD4+ T cells).
CER123- and CER126-transduced CD4+ and CD8+ T cells were labeled with CELLTRACE Violet and co-cultured with the A549 ALK-positive cells. Co-cultured cells were imaged by fluorescent microscopy at 63× magnification after 12 hours (FIGS. 63A-F). White arrows indicate exemplary phagocytic events (pHrodo red targets within CELLTRACE Violet-labeled CD4 T cells).
Phagocytosis of Alectinib-treated ALK+A549 cells by CER-expressing T cells was also quantified. […] Bar graph in FIG. 64A represents quantification of percentage phagocytosis calculated as ((number of phagocytic target events)/(total number of effector cells))*100. Events were calculated from fluorescent 3×3 stitched images at 40×resolution after 12 hours of co-culture. Bar graph in FIG. 64B represents quantification of adjusted phagocytic index calculated as (median area ratio of target events in effector cells*phagocytosis). Events calculated from fluorescent 3×3 stitched images at 40×resolution after 12 hours of co-culture.
CER21−, CER27−, CER30−, CER108−, CER110−, CER112−, CER120−, CER123−, CER124−, CER126−, CER127−, or CER104-transduced CD4+ T cells were co-cultured with Alectinib-treated A549 cells at a 1:1 ratio for 12 hours. Phagocytic events were calculated from 3×3 stitched fluorescent microscopy images at 40X resolution. […] Images were obtained after 12 hours of co-culture. Yellow triangles indicate exemplary phagocytic events (pHrodo red targets within CELLTRACE violet labeled CD4+ T cells).
A time course study of phagocytic uptake of tumor cells by CER-transduced T cells was performed. CD4+ T cells were transduced with a lentiviral vector comprising CER122 nucleic acid. Mock-transduced (vector only) CD4+ T cells were used as control. CER122-transduced T cells were labeled with CELLTRACE violet and co-cultured with pHrodo red labeled A549 ALK+ lung adenocarcinoma cells. Fluorescent microscopy images were obtained at 4, 8, and 16 hours co-culture (FIG. 72C), and % phagocytosis (FIG. 72A) and phagocytic index (FIG. 72B) were calculated.

[1] = test system: HCC827 lung adenocarcinoma cells; experiment: MTT viability and bright field microscopy of HCC827 cells with CER T cells and Osimeritinib; format: cell-based; settings: Osimeritinib 1 nM, 48 hours, CD4+ T cells
Source text: CD4+ T cells were transduced with lentiviral vectors encoding various CERs (CER21, CER108, CER104, CER129, CER27, CER120, CER122, CER123, CER124, or CER126). Mock transduced (vector only) CD4+ T cells were used as control. CER21 comprises a Tim4 binding domain, Tim4 transmembrane domain, and an engulfment signaling domain comprising a primary engulfment signaling domain comprising a TLR8 signaling domain. CER21 has a polypeptide sequence as set forth in SEQ ID NO:88. CER108 has a polypeptide sequence as set forth in SEQ ID NO:137 and comprises a Tim4 binding domain, Tim4 transmembrane domain, and an engulfment signaling domain comprising a primary engulfment signaling domain comprising a DAP12 signaling domain and a secondary engulfment signaling domain comprising a TLR8 signaling domain. CER104 has a polypeptide sequence as set forth in SEQ ID NO:133 and comprises a Tim4 binding domain, Tim4 transmembrane domain, and an engulfment signaling domain comprising a primary engulfment signaling domain comprising a TLR8 signaling domain and a secondary engulfment signaling domain comprising a DAP12 signaling domain. CER129 has a polypeptide sequence as set forth in SEQ ID NO:177 and comprises a Tim4 binding domain, Tim4 transmembrane domain, and an engulfment signaling domain comprising a primary engulfment signaling domain comprising a TLR8 signaling domain and a secondary engulfment signaling domain comprising a TRAF2 signaling domain. CER27 comprises a Tim4 binding domain, Tim4 transmembrane domain, and an engulfment signaling domain comprising a primary engulfment signaling domain comprising a TLR2 signaling domain. CER27 has a polypeptide sequence as set forth in SEQ ID NO:93. […] T cells were washed away, and the number of viable HCC827 cells was quantified using a calorimetric MTT assay. […]

B1: CER104: Tim4 binding and transmembrane domains, TLR8 primary and DAP12 secondary signaling domains; SEQ ID NO:133 (protein)
chain: MSKGLLLLWLVTELWWLYLTPAASEDTIIGFLGQPVTLPCHYLSWSQSRNSMCWGKGSCPNSKCNAELLRTDGTRIISRKSTKYTLLGKVQFGEVSLTISNTNRGDSGVYCCRIEVPGWFNDVKKNVRLELRRATTTKKPTTTTRPTTTPYVTTTTPELLPTTVMTTSVLPTTTPPQTLATTAFSTAVTTCPSTTPGSFSQETTKGSAFTTESETLPASNHSQRSMMTISTDIAVLRPTGSNPGILPSTSQLTTQKTTLTTSESLQKTTKSHQINSRQTILIIACCVGFVLMVLLFLAFLHHLFYWDVWFIYNVCLAKVKGYRSLSTSQTFYDAYISYDTKDASVTDWVINELRYHLEESRDKNVLLCLEERDWDPGLAIIDNLMQSINQSKKTVFVLTKKYAKSWNFKTAFYLALQRLMDENMDVIIFILLEPVLQHSQYLRLRQRICKSSILQWPDNPKAEGLFWQTLRNVVLTENDSRYNNMYVDSIKQYYFLGRLVPRGRGAAEAATRKQRITETESPYQELQGQRSDVYSDLNTQRPYYK
modifications: CER104 protein
phagocytosis of A549 cells (ALK+A549 cells; 1 μM Alectinib): phagocytosed A549 cells | phagocytosis of A549 cells (ALK+A549 cells; 1 μM Crizotinib): phagocytosed A549 cells | bright field microscopy of HCC827 co-culture [1]: cluster of dead HCC827 EGFR^+ cells surrounded by phagocytic CER104^+ T cells

B2: CER126: Tim4 binding and transmembrane domains, TLR2 primary and TRAF2 secondary signaling domains; SEQ ID NO:174 (protein)
chain: MSKGLLLLWLVTELWWLYLTPAASEDTIIGFLGQPVTLPCHYLSWSQSRNSMCWGKGSCPNSKCNAELLRTDGTRIISRKSTKYTLLGKVQFGEVSLTISNTNRGDSGVYCCRIEVPGWFNDVKKNVRLELRRATTTKKPTTTTRPTTTPYVTTTTPELLPTTVMTTSVLPTTTPPQTLATTAFSTAVTTCPSTTPGSFSQETTKGSAFTTESETLPASNHSQRSMMTISTDIAVLRPTGSNPGILPSTSQLTTQKTTLTTSESLQKTTKSHQINSRQTILIIACCVGFVLMVLLFLAFLHRFHGLWYMKMMWAWLQAKRKPRKAPSRNICYDAFVSYSERDAYWVENLMVQELENFNPPFKLCLHKRDFIPGKWIIDNIIDSIEKSHKTVFVLSENFVKSEWCKYELDFSHFRLFDENNDAAILILLEPIEKKAIPQRFCKLRKIMNTKTYLEWPMDEAQREGFWVNLRAAIKSMAAASVTPPGSLELLQPGFSKTLLGTKLEAKYLCSACRNVLRRPFQAQCGHRYCSFCLASILSSGPQNCAACVHEGIYEEGISILESSSAFPDNAARREVESLPAVCPSDGCTWKGTLKEYESCHEGRCPLMLTECPACKGLVRLGEKERHLEHECPERSLSCRHCRAPCCGADVKAHHEVCPKFPLTCDGCGKKKIPREKFQDHVKTCGKCRVPCRFHAIGCLETVEGEKQQEHEVQWLREHLAMLLSSVLEAKPLLGDQSHAGSELLQRCESLEKKTATFENIVCVLNREVERVAMTAEAC
modifications: CER126 protein
phagocytic elimination of ALK+A549 cells (ALK+A549 cells): phagocytic elimination of ALK+A549 cells

B3: CER21: Tim4 binding and transmembrane domains, TLR8 signaling domain; SEQ ID NO:88 (protein)
chain: MSKGLLLLWLVTELWWLYLTPAASEDTIIGFLGQPVTLPCHYLSWSQSRNSMCWGKGSCPNSKCNAELLRTDGTRIISRKSTKYTLLGKVQFGEVSLTISNTNRGDSGVYCCRIEVPGWFNDVKKNVRLELRRATTTKKPTTTTRPTTTPYVTTTTPELLPTTVMTTSVLPTTTPPQTLATTAFSTAVTTCPSTTPGSFSQETTKGSAFTTESETLPASNHSQRSMMTISTDIAVLRPTGSNPGILPSTSQLTTQKTTLTTSESLQKTTKSHQINSRQTILIIACCVGFVLMVLLFLAFLHHLFYWDVWFIYNVCLAKVKGYRSLSTSQTFYDAYISYDTKDASVTDWVINELRYHLEESRDKNVLLCLEERDWDPGLAIIDNLMQSINQSKKTVFVLTKKYAKSWNFKTAFYLALQRLMDENMDVIIFILLEPVLQHSQYLRLRQRICKSSILQWPDNPKAEGLFWQTLRNVVLTENDSRYNNMYVDSIKQY
modifications: CER21 chimeric engulfment receptor
bright field microscopy of HCC827 co-culture [1]: cluster of dead HCC827 EGFR^+ cells surrounded by phagocytic CER21^+ T cells

B4: CER123: Tim4 binding and transmembrane domains, TLR2 primary and TRAF6 secondary signaling domains; SEQ ID NO:150 (protein)
chain: MSKGLLLLWLVTELWWLYLTPAASEDTIIGFLGQPVTLPCHYLSWSQSRNSMCWGKGSCPNSKCNAELLRTDGTRIISRKSTKYTLLGKVQFGEVSLTISNTNRGDSGVYCCRIEVPGWFNDVKKNVRLELRRATTTKKPTTTTRPTTTPYVTTTTPELLPTTVMTTSVLPTTTPPQTLATTAFSTAVTTCPSTTPGSFSQETTKGSAFTTESETLPASNHSQRSMMTISTDIAVLRPTGSNPGILPSTSQLTTQKTTLTTSESLQKTTKSHQINSRQTILIIACCVGFVLMVLLFLAFLHRFHGLWYMKMMWAWLQAKRKPRKAPSRNICYDAFVSYSERDAYWVENLMVQELENFNPPFKLCLHKRDFIPGKWIIDNIIDSIEKSHKTVFVLSENFVKSEWCKYELDFSHFRLFDENNDAAILILLEPIEKKAIPQRFCKLRKIMNTKTYLEWPMDEAQREGFWVNLRAAIKSMSLLNCENSCGSSQSESDCCVAMASSCSAVTKDDSVGGTASTGNLSSSFMEEIQGYDVEFDPPLESKYECPICLMALREAVQTPCGHRFCKACIIKSIRDAGHKCPVDNEILLENQLFPDNFAKREILSLMVKCPNEGCLHKMELRHLEDHQAHCEFALMDCPQCQRPFQKFHINIHILKDCPRRQVSCDNCAASMAFEDKEIHDQNCPLANVICEYCNTILIREQMPNHYDLDCPTAPIPCTFSTFGCHEKMQRNHLARHLQENTQSHMRMLA
modifications: CER123 protein
phagocytic elimination of ALK+A549 cells (ALK+A549 cells): phagocytic elimination of ALK+A549 cells
